Numbering of substitutions follows the chain as printed. One block for each binder: values may come before it.
How the values were obtained:
[1] = biological target: T1, human TIM-3 extracellular domain protein with hFc tag (hTIM-3-hFc) (human, UniProt Q8TDQ0 22-200); assay: FACS, blocking of hTIM-3-hFc binding to phosphatidylserine on apoptotic Jurkat cells, 0.274 nM antibody
T1 construct: not shown: human IgG Fc fragment (hFc) of the pCpC vector
T1 sequence: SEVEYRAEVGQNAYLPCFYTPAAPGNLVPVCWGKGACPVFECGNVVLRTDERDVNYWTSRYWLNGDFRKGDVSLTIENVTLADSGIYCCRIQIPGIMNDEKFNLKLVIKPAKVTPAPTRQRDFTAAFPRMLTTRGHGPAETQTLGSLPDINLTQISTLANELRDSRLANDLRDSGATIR
Protocol: (§1) Jurkat cells were treated with 1 μM staurosporine at 37° C. for 2 hours to induce apoptosis. The presence of phosphatidylserine was detected by Annexin V-FITC cell apoptosis detection kit. […] The cells were washed 1-2 times with PBS buffer, and after cell counting, the cells were diluted to 1-2×10⁶ cells per milliliter with binding buffer, and added to a 96-well FACS reaction plate at 100 microliters per well. The antibody sample to be tested and 2 μg/ml hTIM-3-hFc protein were prepared with binding buffer, and mixed equally in volume. The mixture was incubated at room temperature for 30 minutes, then the FACS reaction plate incubated with apoptotic cells was centrifuged to discard the supernatant, and the above mixture was added to the apoptotic cells at 100 microliters per well and incubated at room temperature for 1 hour. The plate was washed twice with the binding buffer by centrifugation, added with 100 microliters of fluorescent (Alexa 488)-labeled secondary antibodies per well, and incubated for half an hour. The plate was washed 2-3 times with the binding buffer by centrifugation, added with 100 microliters of PBS per well to suspend cells, and detected using FACS (FACS Calibur, BD) and the results were analyzed. The results are shown in Table 15 and FIG. 15, wherein the IgG control is human IgG, and the data in the table is the inhibition rate (%).

[2] = biological target: T1, human TIM-3 extracellular domain …; assay: FACS, blocking of hTIM-3-hFc binding to phosphatidylserine on apoptotic Jurkat cells, 22.222 nM antibody
Protocol: as §1

[3] = biological target: T2, human TIM-3, full length, on cells (human, UniProt Q8TDQ0 22-301); assay: FACS, CHOK1-hTIM-3 cells; antibody 8 nM
T2 construct: Also used here for native TIM-3 on PBMC in the functional rows; also called CHOK1-hTIM-3; HEK293-h TIM-3
T2 sequence: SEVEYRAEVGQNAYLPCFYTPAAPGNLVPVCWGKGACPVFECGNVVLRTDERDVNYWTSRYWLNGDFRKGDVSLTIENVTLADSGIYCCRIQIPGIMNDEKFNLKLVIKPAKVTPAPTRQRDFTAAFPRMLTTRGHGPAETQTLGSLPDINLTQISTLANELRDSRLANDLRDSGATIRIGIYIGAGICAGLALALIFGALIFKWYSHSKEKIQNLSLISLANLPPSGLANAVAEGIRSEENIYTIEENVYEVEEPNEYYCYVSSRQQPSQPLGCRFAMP
Text: (§2) The pIRES plasmid containing the full-length nucleotide sequence encoding human TIM-3 as described in Example 1 was transfected into CHOK1 cell line to obtain a CHOK1 stable cell line containing human TIM-3 (herein referred to as CHOK1-hTIM-3 stable cell line). The pIRES plasmid containing the full-length gene of monkey TIM-3 was transfected into CHOK1 cell line to construct a CHOK1 stable cell line containing monkey TIM-3 (herein referred to as CHOK1-cTIM-3 stable cell line). The CHOK1-hTIM-3 stable cell line and CHOK1-cTIM-3 stable cell line were expanded to a confluence of 90% in a T-75 cell culture flask. The medium was aspirated, and the cells were washed with HBSS (Hanks' Balanced Salt Solution) 1-2 times, and then treated with an enzyme-free cell dissociation solution (Versene solution: Life technology) and the cells were collected. The cells were washed with HBSS buffer for 1-2 times. After counted, the cells were diluted with HBSS to 1-2×10⁶ cells per ml, added with 1% goat serum blocking solution, incubated on ice for 20-30 minutes, and then washed with HBSS by centrifugation 2 times. The collected cells were suspended in the FACS buffer (HBSS+1% BSA) to 2×10⁶ cells/ml, added as 100 microliters per well to a 96-well FACS reaction plate, added with 100 microliters per well of the antibody sample to be tested, incubated on ice for 1-2 hours. The plate was washed twice with the FACS buffer by centrifugation, added with 100 microliters of fluorescent (Alexa 488)-labeled secondary antibodies per well, and incubated on ice for 0.5-1.0 hours. The plate was washed 2-3 times with FACS buffer by centrifugation, added with 100 μl fixative solution (4% Paraformaldehyde) per well to suspend the cells. 5-10 minutes later, it was washed 1-2 times with FACS buffer by centrifugation. The cells were suspended with 100 microliters of FACS buffer, FACS (FACSCalibur, BD) was used for detection and the results were analyzed. The results are shown in FIGS. 7 and 8, Tables 7 and 8, wherein the IgG control is rat IgG, and the data in the table are the average fluorescence intensity values of the cell populations measured by MFI.

[4] = biological target: T2, human TIM-3, full length, on cells; assay: FACS, CHOK1-hTIM-3 cells; antibody 40 nM
Text: as §2

[5] = biological target: T2, human TIM-3, full length, on cells; assay: FACS, CHOK1-hTIM-3 cells; antibody 1.6 nM
Text: as §2

B2: 18D2H2 fully human TIM-3 antibody (human IgG4, kappa) (antibody, V domains shown)
VH: EVQLVESGGDLVQPGGSLRLSCAASGFTFSTYWMTWVRQAPGRGLEWVANIKQDGSAKYYVDSVKGRFTLSRDDAKNSLYLQMNSLRAEDTAVYYCARGSNWFDYWGQGTLVTVSS
VL: ETVMTQSPATLSVSPGERATLSCRANQNVYSNLAWYQQKPGQAPRLLIYDASTRATGFPARFSGSGSGTEFTLTISSLQSEDFAVYYCQQYNNWPLTFGGGTKVEIK
Inhibition ratio (%) [1]: 5.4%
Inhibition ratio (%) [2]: 63.9%

B3: 57F4E5 (TIM-3 antibody purified from hybridoma, chimeric antibody of Example 2) (antibody, V domains shown)
VH: EVQLVESGGGLVQPGGSLRLSCAASGFTFSSYWMSWVRQAPGKGLEWVANIKQDGSEKYYVDSVKGRFTISRDSAKNSLYLQMNSLRAEDTAMYFCARDSNFFDYWGQGTLVTVSS
VL: B2 VL with N26S, N28S, Y30S, Q38R, D50F, A51S, F58I
notes: From hybridoma of Harbour H2L2 transgenic mice: human variable regions, rat constant regions
Mean fluorescence intensity [3]: 478
Mean fluorescence intensity [4]: 485
Mean fluorescence intensity [5]: 390

B4: 18D2H2 (TIM-3 antibody purified from hybridoma, chimeric antibody of Example 2) (antibody, V domains shown)
VH: B2 VH
VL: B2 VL
notes: as for B3
Mean fluorescence intensity [3]: 107
Mean fluorescence intensity [4]: 185
Mean fluorescence intensity [5]: 40.2

B5: 134H3G6 (TIM-3 antibody purified from hybridoma, chimeric antibody of Example 2) (antibody, V domains shown)
VH: EVQLVESGGGLVQPGGSLRLSCAASGFTFSNSWMTWVRQAPGKGLEWVANIKQAGTEKYYVDSVKGRFTISRDNAKNSLYLQMNSLRAEDTAVYYCNSGSNYFDYWGQGTLVTVSS
VL: B2 VL with T2I, N26R, V29F, D50G, F58I
notes: as for B3
Mean fluorescence intensity [3]: 139
Mean fluorescence intensity [4]: 230
Mean fluorescence intensity [5]: 50

B8: 215A8F2 fully human TIM-3 antibody (human IgG4, kappa) (antibody, V domains shown)
VH: QVQLQQWGAGLLKPSETLSLTCTVYGGSFSGYYWNWIRQPPGKGLEWLGEINHSGSTNYNPSLKRRVTISVDTSKNQFSLKLSSVTAADTAVYYCARVYYYGPFDFWGQGTLVTVSS
VL: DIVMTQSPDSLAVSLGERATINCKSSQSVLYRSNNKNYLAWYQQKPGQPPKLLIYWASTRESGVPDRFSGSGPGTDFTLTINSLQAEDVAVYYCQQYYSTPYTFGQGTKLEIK
Inhibition ratio (%) [1]: 0.3%
Inhibition ratio (%) [2]: 61.8%

B9: 215A8F2 (TIM-3 antibody purified from hybridoma, chimeric antibody of Example 2) (antibody, V domains shown)
VH: B8 VH
VL: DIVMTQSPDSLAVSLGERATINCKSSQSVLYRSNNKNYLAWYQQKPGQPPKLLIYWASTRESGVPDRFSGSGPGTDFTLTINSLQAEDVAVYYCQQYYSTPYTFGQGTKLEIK
notes: as for B3
Mean fluorescence intensity [3]: 608
Mean fluorescence intensity [4]: 610
Mean fluorescence intensity [5]: 214

Results, then the binder that gave them:

Inhibition ratio (%) [1]: 8%
Inhibition ratio (%) [2]: 58.4%
B1: 134H3G6 fully human TIM-3 antibody (human IgG4, kappa) (antibody, V domains shown)
VH: B5 VH
VL: B2 VL with T2I, N26R, V29F, D50G, F58I

Inhibition ratio (%) [1]: 0.9%
Inhibition ratio (%) [2]: 62.1%
B6: 7A4F10 fully human TIM-3 antibody (human IgG4, kappa) (antibody, V domains shown)
VH: EVQLLESGGGLVQPGGSLRLSCAASGFTFRTHLISWVRQAPGKGLEWVAAITGSGGSTYYADSVKGRFIISRDNSKNTLFLQMNSLRAEDTAVYYCAKDGGSGSYDDFWGQGTLVTVSS
VL: ETVLTQSPVTLSLSPGERATLSCRASQSVGSYLAWYQQKPGQAPRLLIYDASNRATGIPARFSGSGSGTDFTLTISSLEPEDFAVYYCQQRSNWPPTFGQGTKVEIK

Mean fluorescence intensity [3]: 56.2
Mean fluorescence intensity [4]: 144
Mean fluorescence intensity [5]: 15.4
B7: 7A4F10 (TIM-3 antibody purified from hybridoma, chimeric antibody of Example 2) (antibody, V domains shown)
VH: B6 VH
VL: B6 VL
notes: as for B3

Reference: US20220033501A1 (SHANGHAI PHARMAEXPLORER, published 2022)
